Assay results reported in US20220411483A1 (Chugai, published 2022).

T1: FcgRIIaR (human, UniProt P12318 34-217)
T1 construct: extracellular domain; also called FcγRIIa R type; FcγRIIa (R type)
T1 sequence (looked up): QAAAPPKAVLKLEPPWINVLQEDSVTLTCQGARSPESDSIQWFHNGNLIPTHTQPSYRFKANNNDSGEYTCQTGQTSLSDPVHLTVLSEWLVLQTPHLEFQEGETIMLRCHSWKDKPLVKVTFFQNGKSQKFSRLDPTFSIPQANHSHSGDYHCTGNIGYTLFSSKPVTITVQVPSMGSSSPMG

T2: FcgRIIb (human, UniProt P31994 43-217)
T2 construct: extracellular domain; also called FcγRIIb
T2 sequence (looked up): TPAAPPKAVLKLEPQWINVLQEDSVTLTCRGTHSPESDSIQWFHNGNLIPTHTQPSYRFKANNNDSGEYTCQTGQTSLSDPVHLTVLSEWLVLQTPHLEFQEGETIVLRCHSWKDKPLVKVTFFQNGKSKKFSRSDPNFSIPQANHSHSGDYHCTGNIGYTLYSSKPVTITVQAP


What was measured:
FcgRIIaR = target: T1, FcgRIIaR; assay: SPR, amount bound per captured antibody
FcgRIIb = target: T2, FcgRIIb; assay: SPR, amount bound per captured antibody

| Relative FcgRIIaR-binding Activity (FcgRIIaR) [IL6R-G1d/IL6R-L=100] | Relative FcgRIIb-binding Activity (FcgRIIb) [IL6R-G1d/IL6R-L=100] | Binder |
| --- | --- | --- |
| 4.8 | 7.7 | IL6R-P606/IL6R-L (antibody, human IgG1, kappa) heavy: QVQLQESGPGLVKPSETLSLTCAVSGHSISHDHAWSWVRQPPGEGLEWIGFISYSGITNYNPSLQGRVTISRDNSKNTLYLQMNSLRAEDTAVYYCARSLARTTAMDYWGEGTLVTVSSASTKGPSVFPLAPSSKSTSGGTAALGCLVKDYFPEPVTVSWNSGALTSGVHTFPAVLQSSGLYSLSSVVTVPSSSLGTQTYICNVNHKPSNTKVDKKVEPKSCDKTHTCPPCPAPDLLGGDKVFLFPPKPKDTLMISRTPEVTCVVIDVAEEDGEVKFNWYVDGVEVHNAKTKPREEQYNSTYRVVSVLTVLHQDWLNGKEYKCKVSNKALPAPIEKTISKAKGQPREPQVYTLPPSRDELTKNQVSLTCLVKGFYPSDIAVEWESNGQPENNYKTTPPVLDSDGSFFLYSKLTVDKSRWQQGNVFSCSVMHEALHNHYTQKSLSLSP light: not shown |
| 6.1 | 21.8 | IL6R-P607/IL6R-L (antibody, human IgG1, kappa) heavy: QVQLQESGPGLVKPSETLSLTCAVSGHSISHDHAWSWVRQPPGEGLEWIGFISYSGITNYNPSLQGRVTISRDNSKNTLYLQMNSLRAEDTAVYYCARSLARTTAMDYWGEGTLVTVSSASTKGPSVFPLAPSSKSTSGGTAALGCLVKDYFPEPVTVSWNSGALTSGVHTFPAVLQSSGLYSLSSVVTVPSSSLGTQTYICNVNHKPSNTKVDKKVEPKSCDKTHTCPPCPAPDLLGDDKVFLFPPKPKDTLMISRTPEVTCVVIDVAEEDGEVKFNWYVDGVEVHNAKTKPREEQDNSTYRVVSVLTVLHQDWLNGKEYKCKVSNKALPRPIEKTISKAKGQPREPQVYTLPPSRDELTKNQVSLTCLVKGFYPSDIAVEWESNGQPENNYKTTPMVLDSDGSFFLYSKLTVDKSRWQQGNVFSCSVMHEALHNHYTQKSLSLSP light: not shown |
| 82.6 | 178 | IL6R-P609/IL6R-L (antibody, human IgG1, kappa) heavy: QVQLQESGPGLVKPSETLSLTCAVSGHSISHDHAWSWVRQPPGEGLEWIGFISYSGITNYNPSLQGRVTISRDNSKNTLYLQMNSLRAEDTAVYYCARSLARTTAMDYWGEGTLVTVSSASTKGPSVFPLAPSSKSTSGGTAALGCLVKDYFPEPVTVSWNSGALTSGVHTFPAVLQSSGLYSLSSVVTVPSSSLGTQTYICNVNHKPSNTKVDKKVEPKSCDKTHTCPPCPAPDALGGDSVFLFPPKPKDTLMISRTPEVTCVVIDVAEEDGEVKFNWYVDGVEVHNAKTKPREEQYNSTYRVVSVLTVLHQDWLNGKEYKCKVSNKALPAPIEKTISKAKGQPREPQVYTLPPSRDELTKNQVSLTCLVKGFYPSDIAVEWESNGQPENNYKTTPPVLDSDGSFFLYSKLTVDKSRWQQGNVFSCSVMHEALHNHYTQKSLSLSP light: not shown |
| 69.5 | 176 | IL6R-P614/IL6R-L (antibody, human IgG1, kappa) heavy: QVQLQESGPGLVKPSETLSLTCAVSGHSISHDHAWSWVRQPPGEGLEWIGFISYSGITNYNPSLQGRVTISRDNSKNTLYLQMNSLRAEDTAVYYCARSLARTTAMDYWGEGTLVTVSSASTKGPSVFPLAPSSKSTSGGTAALGCLVKDYFPEPVTVSWNSGALTSGVHTFPAVLQSSGLYSLSSVVTVPSSSLGTQTYICNVNHKPSNTKVDKKVEPKSCDKTHTCPPCPAPDLAGDDSVFLFPPKPKDTLMISRTPEVTCVVIDVAEEDGEVKFNWYVDGVEVHNAKTKPREEQDNSTYRVVSVLTVLHQDWLNGKEYKCKVSNKALPRPIEKTISKAKGQPREPQVYTLPPSRDELTKNQVSLTCLVKGFYPSDIAVEWESNGQPENNYKTTPMVLDSDGSFFLYSKLTVDKSRWQQGNVFSCSVMHEALHNHYTQKSLSLSP light: not shown |
| 67.1 | 173 | IL6R-P624/IL6R-L (antibody, human IgG1, kappa) heavy: QVQLQESGPGLVKPSETLSLTCAVSGHSISHDHAWSWVRQPPGEGLEWIGFISYSGITNYNPSLQGRVTISRDNSKNTLYLQMNSLRAEDTAVYYCARSLARTTAMDYWGEGTLVTVSSASTKGPSVFPLAPSSKSTSGGTAALGCLVKDYFPEPVTVSWNSGALTSGVHTFPAVLQSSGLYSLSSVVTVPSSSLGTQTYICNVNHKPSNTKVDKKVEPKSCDKTHTCPPCPAPDNLGGDSVFLFPPKPKDTLMISRTPEVTCVVIDVAEEDGEVKFNWYVDGVEVHNAKTKPREEQYNSTYRVVSVLTVLHQDWLNGKEYKCKVSNKALPAPIEKTISKAKGQPREPQVYTLPPSRDELTKNQVSLTCLVKGFYPSDIAVEWESNGQPENNYKTTPPVLDSDGSFFLYSKLTVDKSRWQQGNVFSCSVMHEALHNHYTQKSLSLSP light: not shown |
| 48.5 | 138 | IL6R-P627/IL6R-L (antibody, human IgG1, kappa) heavy: QVQLQESGPGLVKPSETLSLTCAVSGHSISHDHAWSWVRQPPGEGLEWIGFISYSGITNYNPSLQGRVTISRDNSKNTLYLQMNSLRAEDTAVYYCARSLARTTAMDYWGEGTLVTVSSASTKGPSVFPLAPSSKSTSGGTAALGCLVKDYFPEPVTVSWNSGALTSGVHTFPAVLQSSGLYSLSSVVTVPSSSLGTQTYICNVNHKPSNTKVDKKVEPKSCDKTHTCPPCPAPDLLQGDSVFLFPPKPKDTLMISRTPEVTCVVIDVAEEDGEVKFNWYVDGVEVHNAKTKPREEQYNSTYRVVSVLTVLHQDWLNGKEYKCKVSNKALPAPIEKTISKAKGQPREPQVYTLPPSRDELTKNQVSLTCLVKGFYPSDIAVEWESNGQPENNYKTTPPVLDSDGSFFLYSKLTVDKSRWQQGNVFSCSVMHEALHNHYTQKSLSLSP light: not shown |
| 49.2 | 158 | IL6R-P617/IL6R-L (antibody, human IgG1, kappa) heavy: QVQLQESGPGLVKPSETLSLTCAVSGHSISHDHAWSWVRQPPGEGLEWIGFISYSGITNYNPSLQGRVTISRDNSKNTLYLQMNSLRAEDTAVYYCARSLARTTAMDYWGEGTLVTVSSASTKGPSVFPLAPSSKSTSGGTAALGCLVKDYFPEPVTVSWNSGALTSGVHTFPAVLQSSGLYSLSSVVTVPSSSLGTQTYICNVNHKPSNTKVDKKVEPKSCDKTHTCPPCPAPDAAGDDSVFLFPPKPKDTLMISRTPEVTCVVIDVAEEDGEVKFNWYVDGVEVHNAKTKPREEQDNSTYRVVSVLTVLHQDWLNGKEYKCKVSNKALPRPIEKTISKAKGQPREPQVYTLPPSRDELTKNQVSLTCLVKGFYPSDIAVEWESNGQPENNYKTTPMVLDSDGSFFLYSKLTVDKSRWQQGNVFSCSVMHEALHNHYTQKSLSLSP light: not shown |
| 41.8 | 89.2 | IL6R-P616/IL6R-L (antibody, human IgG1, kappa) heavy: QVQLQESGPGLVKPSETLSLTCAVSGHSISHDHAWSWVRQPPGEGLEWIGFISYSGITNYNPSLQGRVTISRDNSKNTLYLQMNSLRAEDTAVYYCARSLARTTAMDYWGEGTLVTVSSASTKGPSVFPLAPSSKSTSGGTAALGCLVKDYFPEPVTVSWNSGALTSGVHTFPAVLQSSGLYSLSSVVTVPSSSLGTQTYICNVNHKPSNTKVDKKVEPKSCDKTHTCPPCPAPDAAGGDSVFLFPPKPKDTLMISRTPEVTCVVIDVAEEDGEVKFNWYVDGVEVHNAKTKPREEQYNSTYRVVSVLTVLHQDWLNGKEYKCKVSNKALPAPIEKTISKAKGQPREPQVYTLPPSRDELTKNQVSLTCLVKGFYPSDIAVEWESNGQPENNYKTTPPVLDSDGSFFLYSKLTVDKSRWQQGNVFSCSVMHEALHNHYTQKSLSLSP light: not shown |
| 44.7 | 152 | IL6R-P623/IL6R-L (antibody, human IgG1, kappa) heavy: QVQLQESGPGLVKPSETLSLTCAVSGHSISHDHAWSWVRQPPGEGLEWIGFISYSGITNYNPSLQGRVTISRDNSKNTLYLQMNSLRAEDTAVYYCARSLARTTAMDYWGEGTLVTVSSASTKGPSVFPLAPSSKSTSGGTAALGCLVKDYFPEPVTVSWNSGALTSGVHTFPAVLQSSGLYSLSSVVTVPSSSLGTQTYICNVNHKPSNTKVDKKVEPKSCDKTHTCPPCPAPDHLGGDSVFLFPPKPKDTLMISRTPEVTCVVIDVAEEDGEVKFNWYVDGVEVHNAKTKPREEQYNSTYRVVSVLTVLHQDWLNGKEYKCKVSNKALPAPIEKTISKAKGQPREPQVYTLPPSRDELTKNQVSLTCLVKGFYPSDIAVEWESNGQPENNYKTTPPVLDSDGSFFLYSKLTVDKSRWQQGNVFSCSVMHEALHNHYTQKSLSLSP light: not shown |
| 61.2 | 120 | IL6R-P613/IL6R-L (antibody, human IgG1, kappa) heavy: QVQLQESGPGLVKPSETLSLTCAVSGHSISHDHAWSWVRQPPGEGLEWIGFISYSGITNYNPSLQGRVTISRDNSKNTLYLQMNSLRAEDTAVYYCARSLARTTAMDYWGEGTLVTVSSASTKGPSVFPLAPSSKSTSGGTAALGCLVKDYFPEPVTVSWNSGALTSGVHTFPAVLQSSGLYSLSSVVTVPSSSLGTQTYICNVNHKPSNTKVDKKVEPKSCDKTHTCPPCPAPDLAGGDSVFLFPPKPKDTLMISRTPEVTCVVIDVAEEDGEVKFNWYVDGVEVHNAKTKPREEQYNSTYRVVSVLTVLHQDWLNGKEYKCKVSNKALPAPIEKTISKAKGQPREPQVYTLPPSRDELTKNQVSLTCLVKGFYPSDIAVEWESNGQPENNYKTTPPVLDSDGSFFLYSKLTVDKSRWQQGNVFSCSVMHEALHNHYTQKSLSLSP light: not shown |
| 107 | 183 | IL6R-P611/IL6R-L (antibody, human IgG1, kappa) heavy: QVQLQESGPGLVKPSETLSLTCAVSGHSISHDHAWSWVRQPPGEGLEWIGFISYSGITNYNPSLQGRVTISRDNSKNTLYLQMNSLRAEDTAVYYCARSLARTTAMDYWGEGTLVTVSSASTKGPSVFPLAPSSKSTSGGTAALGCLVKDYFPEPVTVSWNSGALTSGVHTFPAVLQSSGLYSLSSVVTVPSSSLGTQTYICNVNHKPSNTKVDKKVEPKSCDKTHTCPPCPAPDALGDDSVFLFPPKPKDTLMISRTPEVTCVVIDVAEEDGEVKFNWYVDGVEVHNAKTKPREEQDNSTYRVVSVLTVLHQDWLNGKEYKCKVSNKALPRPIEKTISKAKGQPREPQVYTLPPSRDELTKNQVSLTCLVKGFYPSDIAVEWESNGQPENNYKTTPMVLDSDGSFFLYSKLTVDKSRWQQGNVFSCSVMHEALHNHYTQKSLSLSP light: not shown |
